Legend:
[1] = target: Toyocamycin nitrile hydratase (TNH) α subunit (Streptomyces rimosus) (UniProt B6CWJ3); experiment: native MS
[2] = target: TNH αβγ trimer (Streptomyces rimosus) (UniProt B6CWJ3); experiment: native MS

## Toyocamycin nitrile hydratase (TNH) β subunit (natural protein)
[1]
  abundance of the αβ dimer among the SID products (αβγ trimer = 100%): 32%

## TNH αβγ trimer (from UniProt B6CWJ3 1-195) (complex)
[2]
  stoichiometry N: 2

Reference: paper PMC4690985
